T1: SbMATE (Sorghum bicolor, UniProt A7XZS5)
T1 sequence (A7XZS5 1-600): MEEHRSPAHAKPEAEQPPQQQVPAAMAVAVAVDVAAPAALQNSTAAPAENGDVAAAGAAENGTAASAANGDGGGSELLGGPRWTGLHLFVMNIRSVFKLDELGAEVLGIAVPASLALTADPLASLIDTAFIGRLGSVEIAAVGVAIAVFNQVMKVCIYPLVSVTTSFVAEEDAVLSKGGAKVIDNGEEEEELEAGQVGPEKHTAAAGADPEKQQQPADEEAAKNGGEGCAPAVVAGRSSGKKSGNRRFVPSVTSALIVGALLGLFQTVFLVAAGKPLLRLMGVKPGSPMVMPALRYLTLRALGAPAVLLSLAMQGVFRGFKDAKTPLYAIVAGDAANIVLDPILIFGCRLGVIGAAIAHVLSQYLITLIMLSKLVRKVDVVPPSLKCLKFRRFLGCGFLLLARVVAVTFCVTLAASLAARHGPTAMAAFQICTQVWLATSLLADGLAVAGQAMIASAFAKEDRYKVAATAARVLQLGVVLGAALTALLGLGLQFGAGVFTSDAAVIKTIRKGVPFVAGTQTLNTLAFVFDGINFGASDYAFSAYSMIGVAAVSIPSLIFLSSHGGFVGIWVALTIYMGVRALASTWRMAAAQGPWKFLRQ

T2: SbMATE (Sorghum bicolor MATE transporter), detergent-purified (Sorghum bicolor, bDDM detergent-solubilised from Pichia pastoris; N-terminal FLAG and C-terminal His10 tags left out; covalently immobilised by EDC-NHS chemistry for SPR)
T2 chain: T1 sequence (A7XZS5 1-600)

B1: Nb 80 (VHH)
VHH: QVQLVESGGGSVQAGGSLRLSCTYSVYTYSSDSMAWFRQAPGKEREGVAGIYIGSGSTLYADSAKGRLTISQDKAKNTVYLQMNSLKPEDTALYYCAAGGNWYDGVLNVERAFAYWGQGTQVTVSS
notes: Selected by mRNA/cDNA display from a naive camelid single-domain library (Creative Biolabs); also called nanobody 80; source: E. coli, purified (Ni-NTA, SEC)
B2: Nb 81 (VHH)
VHH: HVQLVESGGGSVQAGGSLRLSCAASGYSYCSYDMSWYRQAPGKEREFVATIDSYGDTSYADSVKGRFTISQDNAKNTLYLQMNSLKPEDTAMYYCATTPYGGWRYFGYWGQGTQVTVSS
notes: Selected by mRNA/cDNA display from a naive camelid single-domain library (Creative Biolabs); also called nanobody 81; source: E. coli, purified (Ni-NTA, SEC)
B3: Nb 83 (VHH)
VHH: EVQLVESGGGSVQAGGSLRLSCAVSGYTYCSYDMSWYRQAPGKEREFVSGIDSDGSTSYADSVKGRFTISQDNAKNTLYLQMNSLKPEDTAMYYCAVDSVWRLCSLDPADFGYWGQGTQVTVSS
notes: Selected by mRNA/cDNA display from a naive camelid single-domain library (Creative Biolabs); also called nanobody 83; source: E. coli BL21 (DE3) Star, purified (Ni-NTA, SEC)
B4: Nb 93 (VHH)
VHH: HVQLVESGGGLVQAGGFLRLSCTASGFTFDNLALAWFRQAPGKEREGVSCISWSGTRTYYADSVQGRFAISRDNAKNTLYLQMASLKPEDTAMYYCAAESSWVKTCPGDTTDWGSTYWGQGTQVTVSS
notes: Selected by mRNA/cDNA display from a naive camelid single-domain library (Creative Biolabs); also called nanobody 93; source: E. coli, purified (Ni-NTA, SEC)
B5: Nb 86 (VHH)
VHH: HVQLVESGGGSVQAGGSLRLTCAASGFTFSNYYMSWVRQAPGKGLEWVSSIYSVGSNGYYADSVKGRSTISRDNAKNTLYLQMNSLKPEDTAVYYCAAEPGGSWWDAYSYWGQGTQVTVSS
notes: Selected by mRNA/cDNA display from a naive camelid single-domain library (Creative Biolabs); also called nanobody 86; source: E. coli Shuffle T7, purified (Ni-NTA, SEC)
B6: Nb 94 (VHH)
VHH: EVQLVESGGGLVQPGGSLRLSCAASGFTFSTYSMSWVRLAPGKALEWVSVINSGGDATYYADSVKGRFTISRDNAKNMLYLQMNSLKPVDTAMYYCVTGLYMSTGPVVAVPFGYWGQGTQVTVSS
notes: Selected by mRNA/cDNA display from a naive camelid single-domain library (Creative Biolabs); also called nanobody 94; source: E. coli BL21 (DE3) Star, purified (Ni-NTA, SEC)

Tests used:
SbMATE [1] = target: T1, SbMATE; experiment: surface plasmon resonance, immobilized detergent-purified protein; format: binding; set-up: full-length; N-terminal FLAG and C-terminal His10 (or 3C-cleavable C-terminal His8) in Pichia pastoris KM71H, bDDM-purified for SPR; Xenopus oocytes from cRNA for citrate efflux; details: 50 mM HEPES pH 8.0, 150 mM NaCl, 0.03% bDDM
SbMATE [2] = target: T1, SbMATE; experiment: ethidium uptake into Pichia pastoris cells, flow cytometry of DNA-bound ethidium; format: cell-based; set-up: full-length; N-terminal FLAG and C-terminal His10 (or 3C-cleavable C-terminal His8) in Pichia pastoris KM71H; details: pH 8.5, 25 mM Tris-Cl, 137 mM NaCl, 2.7 mM KCl, outward proton gradient, 20 min, room temperature; read-out: half-maximal transport rate
[3] = target: T2, SbMATE (Sorghum bicolor MATE …); experiment: SPR; BiOptix 404Pi, CMD sensorchip; detergent-purified SbMATE covalently immobilised (EDC-NHS, 5,000 RU); purified Nbs injected at various concentrations; running buffer 50 mM HEPES pH 8.0, 150 mM NaCl, 0.03% bDDM; double-referenced against a blank surface and buffer injections; regeneration 50 mM glycine pH 2.1; details: both partners purified
[4] = target: T2, SbMATE (Sorghum bicolor MATE …); experiment: SPR; as the other SPR (SbMATE covalently immobilised on CMD chip; 50 mM HEPES pH 8.0, 150 mM NaCl, 0.03% bDDM; Nbs injected at various concentrations) but a BSA-immobilised surface was the reference channel instead of a blank surface; n = 3; details: both partners purified

Row | Molecule | Kd [3] [µM] | further results
1 | ethidium bromide | – | Kd (SbMATE [1]): 47.1 ± 15.6 µM; Km (SbMATE [2]): 130 ± 17.8 µM
2 | B1 | 12.2 | –
3 | B2 | 23.9 | –
4 | B3 | 3.3 | –
5 | B4 | 26.1 | –
6 | B5 | – | Kd [4]: 0.174 µM
7 | B6 | – | Kd [4]: 0.0995 µM

Source: paper PMC5740117, “Functional characterization and discovery of modulators of SbMATE, the agronomically important aluminium tolerance transporter from Sorghum bicolor” (Scientific Reports, 2017)
